Assay results: patent US20070213263A1, “Methods And Compositions Using Adiponectin For Treatment Of Cardiac Disorders And For Stimulation Of Angiogenesis” (The Trustees of Boston University, priority 2003, published 2007)

Legend:
rat cardiac myocytes = test: Agonist-stimulated hypertrophy of cultured neonatal rat ventricular myocytes; assay type: cell-based
Description: [^3H] leucine incorporation was determined as previously described 74.
For histological analysis, the mice were sacrificed and LV tissue was obtained at 7 days after TAC. Tissue was embedded in OCT compound (Miles, Elkhart, Ind.) and snap-frozen in liquid nitrogen. Tissue slices (5 μm in thickness) were prepared. Tissue sections were stained with hematoxylin and eosin or with Masson trichrome. The myocyte cross sectional area was calculated by measuring 200 cells per section. To determine sarcomeric F-actin organization, cultured myocytes were stained with FITC-conjugated phalloidin (Sigma, St. Louis, Mo.).

HUVECs [1] = test: Tube formation assay, HUVECs on Matrigel; assay type: cell-based, human; conditions: adiponectin 30 μg/ml, VEGF 20 ng/ml, 18 h
Description: The formation of vascular-like structures by HUVECs on growth factor-reduced Matrigel (Becton Dickinson) was performed as previously described^28. Twenty-four-well culture plates were coated with Matrigel according to the manufacturer's instructions. […] The degree of tube formation was quantified by measuring the length of tubes in 3 randomly chosen fields from each well using the angiogenic activity quantification program (Kurabo, Osaka, Japan). […]

HUVECs [2] = test: Migration assay (modified Boyden chamber); assay type: cell-based, human; conditions: adiponectin 30 μg/ml, VEGF 20 ng/ml, 4 h
Description: Migration activity was measured using a modified Boyden chamber assay. Serum-starved cells were trypsinized and resuspended in EGM-2 with 0.5% FBS. Cell suspension (250 μl, 2.0×10^4 cells/well) were added to the transwell fibronectin-coated insert (6.4 mm diameter, 3.0 μm pore size, Becton Dickinson, Franklin Lakes, N.J.). Then 750 μl of EGM-2 with 0.5% FBS supplemented with adiponectin (30 μg/ml), VEGF (20 ng/ml) or bovine serum albumin (BSA) (30 μg/ml) were added to lower chamber and incubated for 4 h. Migrated cells on the lower surface of the membrane were fixed, stained with Giemsa stain solution and eight random microscopic fields per well were quantified. All assays were performed in triplicate.

[3] = system: cornea neovascularization; test: Rabbit corneal angiogenesis assay; assay type: in vivo, New Zealand white rabbits; conditions: day 7
Description: Rabbit corneal assay was performed with minor modification as previously described^33. Male New Zealand white rabbits weighing 3.0-3.9 kg were used. Two pockets, about 2×3 mm size and 5 mm apart, were surgically prepared in the cornea extending toward a point 2 mm from the limbus. Hydron pellets, which contain indicated amount of adiponectin, VEGF (100 ng) or PBS and enables the slow release of it^34, were implanted into the pocket. On day 7 after surgery, eyes were photographed and cornea neovascularization was examined in a single blind manner. The angiogenic activity was evaluated on the basis of the number and growth rate of newly formed capillaries. An angiogenic score was calculated (vessel density×distance from limbus)^32. A density value of 1 corresponded to 0-25 vessels per cornea, 2 from […], 3 from 50-75, 4 from 75-100 and 5 for >100 vessels.

endothelial cells = test: Cell-wounding assay (unpublished data); assay type: cell-based
Akt (Ser 473) = test: Western blot, Akt phosphorylation in HUVECs; assay type: cell-based, human; conditions: adiponectin 30 μg/ml, time course
Description: (§1) Human umbilical vein endothelium cells (HUVECs) were cultured in endothelial cell growth medium-2 (EGM-2, San Diego, Calif.). Before each experiment, cells were placed in endothelial cell basal medium-2 (EBM-2, San Diego, Calif.) with 0.5% fetal bovine serum (FBS) for 16 h for serum-starvation. Experiments were performed by the addition of the indicated amount of mouse recombinant adiponectin, VEGF or vehicle for the indicated lengths of time. In some experiments, HUVECs were infected with adenoviral constructs encoding dominant-negative AMPKα2^28, dominant-negative AKT1^19 or green fluorescence protein (GFP) at a multiplicity of infection (MOI) of 50 for 24 h. In some experiments, HUVECs were pretreated with LY294002 (10 μM) or vehicle for 1 h before stimulation with adiponectin. Cell lysates were resolved by SDS-PAGE. The membranes were immunoblotted with the indicated antibodies at a 1:1000 dilution followed by the secondary antibody conjugated with horseradish peroxidase (HRP) at a 1:5000 dilution. ECL-PLUS Western Blotting Detection kit (Amersham Pharmacia Biotech, Piscataway, N.J.) was used for detection.

[4] = system: AMPK (Thr 172 of α subunit); test: Western blot, AMPK phosphorylation in HUVECs; assay type: cell-based, human; conditions: adiponectin 30 μg/ml
Description: as §1

ERK (Thr 202/Tyr 204) [5] = test: Western blot, ERK phosphorylation in HUVECs; assay type: cell-based, human; conditions: adiponectin 30 μg/ml, time course
Description: Human umbilical vein endothelium cells (HUVECs) were cultured in endothelial cell growth medium-2 (EGM-2, San Diego, Calif.). Before each experiment, cells were placed in endothelial cell basal medium-2 (EBM-2, San Diego, Calif.) with 0.5% fetal bovine serum (FBS) for 16 h for serum-starvation. Experiments were performed by the addition of the indicated amount of mouse recombinant adiponectin, VEGF or vehicle for the indicated lengths of time. In some experiments, HUVECs were infected with adenoviral constructs encoding dominant-negative AMPKα2^28, dominant-negative AKT1^19 or green fluorescence protein (GFP) at a multiplicity of infection (MOI) of 50 for 24 h. In some experiments, HUVECs were pretreated with LY294002 (10 μM) or vehicle for 1 h before stimulation with adiponectin. Cell lysates were resolved by SDS-PAGE. The membranes were immunoblotted with the indicated antibodies at a 1:1000 dilution followed by the secondary antibody conjugated with horseradish peroxidase (HRP) at a 1:5000 dilution.

eNOS (Ser 1179) = test: Western blot, eNOS phosphorylation in HUVECs; assay type: cell-based, human; conditions: adiponectin 30 μg/ml
Description: as §1

[6] = system: AMPK (Thr 172 of the α subunit); test: Western blot, AMPK phosphorylation in cultured cardiac myocytes; assay type: cell-based, rat; conditions: adiponectin 30 μg/ml, time course
[7] = system: CD31-positive cells in Matrigel plugs; test: Mouse angiogenesis assay (Matrigel plug); assay type: in vivo, C57BL mice; conditions: adiponectin 100 μg/ml in plug, subcutaneous, 14 days
Description: The formation of new vessels in vivo was evaluated by Matrigel plug assay as described previously^28. For these experiments, 400 μl of Matrigel containing adiponectin (100 μg/ml) or vehicle was injected subcutaneously into the abdomen of C57BL mice. Mice were sacrificed 14 days after the injection. The Matrigel plugs with adjacent subcutaneous tissues were carefully recovered by en bloc resection, fixed in 4% paraformaldehyde, dehydrated with 30% sucrose, and embedded in OCT compound (GTI Microsystems, Tempe, Ariz.) in liquid nitrogen. Immunohistostaining for CD31 (PECAM-1: Becton Dickinson) were performed on adjacent frozen sections. Primary antibody was used at a 1:50 dilution followed by incubation of secondary antibody (HRP-conjugated anti-rat IgG at a 1:100 dilution). The AEC Substrate Pack (Biogenex, San Ramon, Calif.) was used for detection. CD31-positive capillaries were counted in 4 randomly chosen low-power (×100) microscopic fields.

ERK (Thr 202/Tyr 204) [8] = test: Western blot, ERK phosphorylation in cultured cardiac myocytes; assay type: cell-based, rat
[9] = adiponectin 30 μg/ml pretreatment, Pro 2 μM, NE 1 μM, 48 hours

Molecule: N#CC(=C(/N)Sc1ccccc1N)/C(C#N)=C(\N)Sc1ccccc1N [U0126, reference compound]
- reduction of αAR-induced hypertrophy (rat cardiac myocytes; p<0.01 vs. control): 82.1±7.8%

Molecule: VEGF [reference compound]
- formation of capillary-like tubes (tube length) (HUVECs [1]): a trend toward increased tube length in the VEGF-treated cultures relative to adiponectin, but this was not statistically significant
- HUVEC migration (HUVECs [2]): a trend toward greater migration with VEGF compared to adiponectin, but this was not statistically significant

B1: adiponectin: Recombinant histidine-tagged mouse adiponectin (amino acids 15-247) expressed in bacteria; adipocyte specific cytokine (protein, UniProt Q15848 19-244, looked up)
Adiponectin: ETTTQGPGVLLPLPKGACTGWMAGIPGHPGHNGAPGRDGRDGTPGEKGEKGDPGLIGPKGDIGETGVPGAEGPRGFPGIQGRKGEPGEGAYVYRSAFSVGLETYVTIPNMPIRFTKIFYNQQNHYDGSTGKFHCNIPGLYYFAYHITVYMKDVKVSLFKKDKAMLFTYDQYQENNVDQASGSVLLHLEVGDQVWLQVYGEGERNGLYADNDNDSTFTGFLLYHDTN
- stimulatory effect on corneal neovascularization relative to VEGF ([3]; adiponectin 1 μg and 10 μg vs VEGF 100 ng): comparable with that of VEGF
- neovascularization in corneal implants ([3]; pellets with adiponectin 1 μg and 10 μg): markedly accelerated compared with controls
- formation of capillary-like tubes (tube length) (HUVECs [1]): promoted the formation of capillary-like tubes in a manner similar to VEGF
- endothelial migration in cell-wounding assay (endothelial cells): induced the endothelial migration
- HUVEC migration (HUVECs [2]): significantly stimulated HUVEC migration
- αAR-stimulated increase in protein synthesis ([3H] leucine incorporation) (rat cardiac myocytes; [9]): prevented
- αAR-stimulated re-organization of sarcomeric actin (rat cardiac myocytes; [9]): prevented
- AngII-stimulated myocyte hypertrophy (rat cardiac myocytes; data not shown): suppressed
- αAR-stimulated increase in myocyte size (rat cardiac myocytes; pretreatment, then Pro 2 μM and NE 1 μM for 48 hours): prevented
- actin organization, agent alone (rat cardiac myocytes; without αAR stimulation): no effect
- myocyte size, agent alone (rat cardiac myocytes; without αAR stimulation): no effect
- protein synthesis, agent alone (rat cardiac myocytes; without αAR stimulation): no effect
- Akt phosphorylation (Akt (Ser 473)): time-dependent increase in Akt phosphorylation
- time of maximal AMPK phosphorylation [4]: 15 min
- phosphorylation of AMPK ([4]; time course): enhanced the phosphorylation of AMPK in a time-dependent manner
- phosphorylation of ERK (ERK (Thr 202/Tyr 204) [5]): no effect on the phosphorylation of ERK
- eNOS protein levels (eNOS (Ser 1179)): no effect on eNOS protein levels
- eNOS phosphorylation at Ser 1179 (eNOS (Ser 1179); time course): time-dependent increase in eNOS phosphorylation
- phosphorylation of AMPK [6]: stimulated the phosphorylation of AMPK in cultured cardiac myocytes in a time-dependent manner
- density of CD31-positive cells in Matrigel plugs [7]: significantly higher density of CD31-positive cells compared with controls
- αAR-stimulated ERK phosphorylation (ERK (Thr 202/Tyr 204) [8]; adiponectin 30 μg/ml pretreatment, Pro 2 μM, NE 1 μM): suppressed
- AngII-stimulated ERK phosphorylation (ERK (Thr 202/Tyr 204) [8]; data not shown): suppressed AngII-stimulated ERK phosphorylation
- ERK phosphorylation, agent alone (ERK (Thr 202/Tyr 204) [8]; without αAR stimulation): no effect on ERK phosphorylation
